# Target: C-terminally truncated fragment of DdSkp1 (residues 1–122) (Dictyostelium discoideum) (UniProt P52285)
# Test: AUC
substance,measurement,value
C-terminally truncated fragment of DdSkp1 (residues 1–122) (from UniProt P52285 1-122) (domain or fragment),stoichiometry N,2
